Experiment: soluble on expression in E. coli; label from the status in PepcDB or PDB records

Sequence | soluble on expression in E. coli
MAHHHHHHMDHRRSGLVLSLRYRCDGPVGTVETRRLTHVGTRSRARSAELARVRRALLVLLLPQRMKGLGQRLGDIRPREREGPGCRAQPWRASVVPRPARASLPPPKASGCFYAVHHHDKSSRLSVTATTAHDSSMRAPPSSVLRWTFTCVSSPRSTTAAAQTYHRPLHHPSQGFTTPRGRGRSAIHTHTHTHTHTHTHTHTHTHTHTRLSFNVRGPCEEHPHAPAACCIPLFLCCDAPAVSAAAAMSLQVNLLNNTFANPFMNAAGVMCTTTEELVAMTESASGSLVSKSCTPALREGNPTPRYQALPLGSINSMGLPNNGFDFYLAYAAEQHDYGKKPLFLSMSGLSMRENVEMCKRLAAVATEKGVILELNLSCPNVPGKPQVAYDFDAMRQCLTAVSEVYPHSFGVKMPPYFDFAHFDAAAEILNEFPKVQFITCINSIGNGLVIDAETESVVIKPKQGFGGLGGRYVLPTALANINAFYRRCPGKLIFGCGGVYTGEDAFLHVLAGASMVQVGTALQEEGPSIFERLTSELLGVMAKKRYQTLDEFRGKVRTLDGTAESTR | not soluble
MTEVRRRGRPGQAEPTAQKGAQALERGIAILQYLERSGGSSSVSDISGSLDLPLSTTFRLLKVLQAADFVYQDSQLGWWHIGLGVFNVGSAYIHNRDVLSVAGPFMHRLMLLSGETVNVAIRNGNEAVLIGQKECKSMVRMCAPLGSRLPLHASGAGKALLYPLTEEELVGIVVNTGLRRFTPTTLVDLPILLKNLEQAREQGYTVDQEEHVVGLNCIASAIYDDAGSVVAAISISGPASRLTEDRFISQGELVRDTAKDISTALGLKPPVA | not soluble
MQGKDNYQEQQEINSTDEEGMIFQLADTTIQACNAAAERIIGYKNEQILGKTPFKPPWQIVHEDGTIFTPETVPPIVALQTGKPCKNVVMGLYQPTGQLVWLLLNSQPLFQTNKSTPYAVVTTFTDFTKVKCRQSRSDACITNNKKLIVTWNQDQAVEISPNTDKQKLNQPVAEPISDDCTKAFLSMQNHILELIATGNSLSEILEKLAQSIEAQLAEVFCSIMLLNDTGTKLYPGVSSSLPEKYIQELKNGVPVGADVGSCGTSAYTKQTVIVSDIASDHKWVKYRDLTLTNNLKACWSTPILDSQGHVLGTFALYYPTVRIPQKSDLQLIERASHLAGVAIERQRWQLALQQSEYQLRLMTETIPQQVWTAQPNGLVDYYNQRWCDFTGKTQEQLKTESWEQIIHPEDLPKVEELWAKAVQTGSDYEVETRMLSGSGEYHWILGQARPLRNQQGQIVKWYGTNTDITDHIQAREALRESELNFRTLADTMPQMIWTAKGDGWLEYCNQRWLDYTGMTLEETQGWGWQPVLHPDDAQICIDIWSESVRTGQNYQIEYRLRRARDGQYRWHLGRAFPLRNQKGQIIKWFGSCTDIDDHKRSEEALRNALQEKQAAYEAAETANRVKDEFLAILSHELRTPLNPILGWSQLLKTGKLDKDKTDEALKSIERNAKLQVDLIDDLLDVSRILRGKLTLNVTTVNLADIISAALETMSLAASVKQIAVQTLIEPNIGKVRGDPARLQQIVWNLLSNAIKFTPQGGEVVVQLEQIGSMAHIIVSDQGKGINRKFLPHIFEHFRQEDGSTTRKFGGLGLGLAIVRHLVELHGGTVEADSPGEGQGTTLKVILPLISSLPVTVTNGQFEDVALSLKGIKILVVDDDVDSLAFVKVVLELYEATVTTAASAPEALQIGVQLKPDVLISDIGMPEMDGYELLRRMRALSSDLGGDIPAVSKAIPKAIALTAFAGELDEQQAMAAGFQIHIPKPVEPEALAAAVAQVLKINV | not soluble
MRNIEEDLHKNEEEDPAPEVDDTDIPVDPLLTLLYIRHTLTSPWSSSEERDTAKAAMMEEMEKHNMAPYIRLVCEALGVPLDESKLAEMDAINAKKVAAFDARLKDAVDNLGDTEVRDVLQAKCDHYARIGDLEMCMKTNEECAAKTLATGPKLDLYFQRIRLGIAFSDNDIAAKGITDAHRLMKDGDWERRNRLRVYEGIYHVFIRDFQRGSTLLLDSITTFAAGELLTFQDFVFITVVASLPVLSRPELRKRIVYSPEVNRTGVDDVRELVNSIYDCQYNKVFPNLEVVCQHLRKVVYLSPHVSYFFREMRVLIFTQFLDSYSSVTLESMGAAFGIPVPALDSMLCTLISNERIACKVDRVDGSVETYRGDTTNFDYHRIVKSGDLLLNRIQKLSRLVDM | soluble
MTGDKEIITMTFKIWQIGLHLQQQEAAAVAIVRGAKECFLQRWWRLPLAHDIIKDGRIVDAQQLAKTLLPWSRELPQRHHIMLAFPASRTLQRSFPRPSMSLGEREQTAWLSGTMARELDMDPDSLRFDYSEDSLSPAYNVTAAQSKELATLLTLAERLRVHVSAITPDASALQRFLPFLPSHQQCLAWRDNEQWLWATRYSWGRKLAVGMTSAKELAAALSVDPDSVAICGEGGFDPWEAVSVRQPPLPPPGGDFAIALGLALGKAY | not soluble
MLFNLLGKPLKICGCSPRTGWYLDGYCKTDQSDLGNHSICSVVTDTFLKYTKSQGNNLIDPNLLMEFPGLKAGDHWCLCAERWEQARIDGVAPPIIIESTNLSATQVIPLNILKSFAFEII | not soluble
MGPSRWPRGGGRLLGRLYLVVTPRPGWSLEATLDRTERALAGGVEVVQLRAKDWEARPTLALGERMLALARRYGVPFFLNDRPDLAALLGADGVHLGQNDLTPEEARRFFAGMVGRSTHAPEQALRALEEGVDYLSVGPVWETPTKPGRPAAGLAYVRWAAENLGEKPWYAIGGIDLGNLDQVLEAGARRIVVVRAILDAPDPERAARALRERLYGVA | soluble
DGYIGVMIDDLVTKGTIEPYRLLTSRAEYRLILRHDNADMRLTEMGREIGLVDDERWARFEIKKNQFDNEMKRLDSIKLKPVKETNAKVEEMGFKPLTDAVTAKEFLRRPEVSYQDVVAFIGPAAEDLDDKIIELIETEIKYEGYISKAMDQVAKMKRMEEKRIPANIDWDDIDSIATEARQKFKLINPETIGQASRISGVNPADISILMVYLEG | not soluble
MDAKVAFSPHSDANGRLDEIGADIDTAQSSVLFSLAFLGQMTRGAIGPALGRALERPEVHVMGIADAEVRAGNLGLNVLTPDNRRRVVRAAALTGNVPPPFLTEPSGLAGVDGNQRGTRMHHKFVVLDFDKPTARVYLGSYNFSNPADDENGENLVVVRDRTVATSYMIEALRMYDHYVFRVLEHHHHHH | soluble
MGHAHSSSSNGSSQITANPHDEKTKEKVEKLFRQNNRTNRSRSLDNRTQEKLPNRPVGSSHSARFPKTRHIPVPLQGPRKSEEGPNGSISGLSRDDKRIIETCWFKCSQKQLRKCSCDMFWDILHTDEDILRLFRLDHVAPNRLKDNDYFKSHASNLALVLNLVVTNLQDNFDQAQDALQALGYQHLHLIDRTHFQTMYWDIFTDCFERNPPPSFKKGAEREVALKFHRF | not soluble
AVNGKGMNPDYKAYLMAPLKKIPEVTNWETFENDLRWAKQNGFYAITVDFWWGDMEKNGDQQFDFSYAQRFAQSVKNAGMKMIPIISTHQCGGNVGDDCNVPIPSWVWNQKSDDSLYFKSETGTVNKETLNPLASDVIRKEYGELYTAFAAAMKPYKDVIAKIFLSGGPAGELRYPSYTTSDGTGYPSRGKFQAYTEFAKSKFRLWVLNKYGSLNEVNKAWGTKLISELAILPPSDGEQFLMNGYLSMYGKDYLEWYQGILENHTKLIGELAHNAFDTTFQVPIGAKIAGVHWQYNNPTIPHGAEKPAGYNDYSHLLDAFKSAKLDVTFTCLEMTDKGSYPEYSMPKTLVQNIATLANEKGIVLNGENALSIGNEEEYKRVAEMAFNYNFAGFTLLRYQDVMYNNSLMGKFKDLLGVTPVMQTIVVKNVPTTIGDTVYITGNRAELGSWDTKQYPIQLYYDSHSNDWRGNVVLPAERNIEFKAFIKSKDGTVKSWQTIQQSWNPVPLKTTSHTSSW | soluble
MELYDTEEQQVEAIKDWWKENGKAVIFGAVIGLGGLFGWRYYQDSVVAAQEAASQSYSKAMDALQAKGIESEGTIQTFIDANKETEYAVLAAMQLAKAQVDAGQLDEALAQLEWAKGATKDAALKPLLTFRVARLQAEQGQFDDALTQLTSIQEKSWAGRVAELRGDILMRKGDSAAAYAAYTEAQQAEDASQTLQMKLDDLAK | not soluble
MAIESGYILTTPCKNEEKSLPELAESIINQTITPKLWLIINDNSTDNSAKILRDIETKYNWIRVVTSEGQKRDLSFHYAEVVRYGLSLSLEISSAEKIPVEYIGLIDADMILEKNFFEKMIDRFEQDPNLGVASGSTAYFEAENLVTEKGRDNLPIGGLRVWRRECLIETGGFPLSYSADSVSNVLALLHGWETKKFEDIIGIQTRRTGSAEGLWKGYITKGESDYYRDYHPVYVLSKFIKYSFTHPFYIGIAYMEGYINGIVKIKKKICIPEVRRYYRKKHLEIGRYYAGKFKFKLLEHHHHHH | not soluble
DTDMGLTRRLPPLSPNKEKQPDVEINDRNIMRILVNKNDEIILLKKGATGSQDQIIPVKLSDLRRITKEFIANPTNRADLPEKEKRE | not soluble
MGSDKIHHHHHHAQQLNVQGDLVSSYVWRGMYQTGASIQPTLGFSVGNFSLTAWGSTDFDGTSASAGAAAKEIDLTAAYTLGRSGLTVSVADLWWAGQGARKYFNFKSHETAHHFEAGVAYTVQSETFPLSVAWYTMFAGQDKNAEGGQNYSSYVEFNYPFRVRMVDLNVTCGMVPYAAPQYNCDGFAVTNVALKGTTQIRFTDKFALPVFAQAVWNPRMEDAHLVFGITLKP | not soluble
MGSDKIHHHHHHMIWKLSERKDWNSLEQQFGWVRDMNQVPQHTVHHAEGSVAVHTRMVLEALLRQPAYPMLPEQEREILWAAALLHDVEKRSTSVDEGNGQVTSKNHAKRGETTVRTLLYRDIPAPFNIREHIASLVRHHGLPIWLMEREDPLKRACEASLRLDTSLLKQLTVADICGRISTDKEVLLEATEFFEMFCREQQCWGKAREFANGTARFHYFHTPRSYIDYVPHDDFKCGVTLLVGLPGMGKDYYIESRCADMPVVSLDAIRRKHKFSPTDKAANGWVAQTAKEQARIYLRKGQDFIWNATNVSRQRRTQLIDLFITYGARVKIVYIEKPYSVWRRQNSTREYEVPETVLDKMLGRLEVPQLTEAHEVVYVVEE | not soluble
MAVSDNTFSMSTMFNALPNPTETSGYIPPSGFAPRASATPLHAALFNLMTDGDGVSYFKEMISKSDKTELQRMASLLTSDSDYFMSIVTTKFGSRRVQKLLGKSDDVDAFFCAAILRRFLHITTDKYASYVTIRAMVVFDKVMKKALYERILYHALDLACDQHGCIALNDIITDADDPYYRDQLLELVVSNALRLSNDASGNFVVQHVLTLYDSRCIHNIAVNLYGQCIELSFKKYGSYIVEKLLEVEESMVVVVVELLGCDGDRLMRLARNEFGNFVVVKALRFTKEMRMDLFWGLVQKLMPFIHLLRRSHGNNIANILDTFRLRC | soluble
MSEPKRLFFAIDLPDDARAQIIAWRAAHFASEDGRPVAAANLHLTLAFLGDVSSDKQRALAQLAGRIRQPGFTLHLDDAGQWLRSRVVWLGMRQPPRGLLQLANMLRAQAARSGCYQSPQPFHPHITLLRDASHTVAIPPPGFCWSFPVTSFALYASSYGQGRTRYAELQRWTLGE | not soluble
MCTDHQWINSAIRKIEADYQRSADTHLIKLDLPCVSGVDIYLKDESTHPTGSLKHRLARSLFLYGLCNGWIGPETTIIESSSGSTAVSEAYFARLLGLPFIAVMPKCTARKKIEQIQFYGGKAHLVDRSDQIYAESHRLAKELKGHYMDQFTYAERATDWRGNSNIADSIFSQMQMEQHPVPSWIVMSPGTGGTSATIGRFIRYQQYNTKLCVVDPENSVFYDYYRTRNAELTRDCGSKIEGIGRPRVEPSFIPDVVDEMRAIPDAASVATIYWLEKILGRKAGASTGTNLYGALQLACEMKRRGEQGSIVTLLCDSGERYLDTYYNSEWVKNNIGDLSKYLHKLETFSATGCLD | not soluble

Source: the DeepSol protein solubility set
